Source: patent US20230250154A1 (CYTONICS, published 2023)
Each block holds one binder with its values, some of them ahead of it.

What was measured:
Assay in all cases: cell-based or functional assay
Elastase = target: Elastase
Cathepsin G = target: T1, Cathepsin G (UniProt P08311 21-244)
T1 sequence (looked up): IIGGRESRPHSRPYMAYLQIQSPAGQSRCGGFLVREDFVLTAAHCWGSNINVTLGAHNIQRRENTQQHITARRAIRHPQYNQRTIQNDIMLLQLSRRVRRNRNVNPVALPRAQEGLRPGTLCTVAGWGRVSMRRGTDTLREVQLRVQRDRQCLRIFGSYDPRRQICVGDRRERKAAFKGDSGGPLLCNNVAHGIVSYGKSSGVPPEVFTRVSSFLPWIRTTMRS

MMP1 = target: T2, MMP1 (human, UniProt P03956 100-469, limits assumed)
T2 sequence (looked up): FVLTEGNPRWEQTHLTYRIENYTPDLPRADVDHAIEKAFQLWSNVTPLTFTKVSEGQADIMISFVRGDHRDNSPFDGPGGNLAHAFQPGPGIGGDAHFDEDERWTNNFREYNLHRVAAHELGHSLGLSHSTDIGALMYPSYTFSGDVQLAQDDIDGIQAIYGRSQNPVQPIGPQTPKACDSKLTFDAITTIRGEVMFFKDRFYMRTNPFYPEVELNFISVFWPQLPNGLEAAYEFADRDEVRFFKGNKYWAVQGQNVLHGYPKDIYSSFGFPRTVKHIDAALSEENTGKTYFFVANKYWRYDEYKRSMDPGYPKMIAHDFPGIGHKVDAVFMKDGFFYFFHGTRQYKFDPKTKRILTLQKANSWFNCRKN

MMP8 = MMP8 (human, UniProt P22894 101-467, limits assumed)
MMP8, sequence (P22894 101-467 limits assumed): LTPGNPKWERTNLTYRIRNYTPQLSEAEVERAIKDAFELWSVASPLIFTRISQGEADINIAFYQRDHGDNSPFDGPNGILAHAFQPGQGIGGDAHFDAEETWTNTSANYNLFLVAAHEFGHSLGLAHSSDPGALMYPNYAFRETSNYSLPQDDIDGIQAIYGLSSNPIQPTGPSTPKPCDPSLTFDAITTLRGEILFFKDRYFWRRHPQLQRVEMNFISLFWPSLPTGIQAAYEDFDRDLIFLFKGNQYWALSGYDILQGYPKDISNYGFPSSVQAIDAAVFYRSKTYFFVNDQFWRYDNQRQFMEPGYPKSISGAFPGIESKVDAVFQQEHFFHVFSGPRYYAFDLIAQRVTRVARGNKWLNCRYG

MMP2 = target: T3, MMP2 (human, UniProt P08253 110-660, limits assumed)
T3 sequence (looked up): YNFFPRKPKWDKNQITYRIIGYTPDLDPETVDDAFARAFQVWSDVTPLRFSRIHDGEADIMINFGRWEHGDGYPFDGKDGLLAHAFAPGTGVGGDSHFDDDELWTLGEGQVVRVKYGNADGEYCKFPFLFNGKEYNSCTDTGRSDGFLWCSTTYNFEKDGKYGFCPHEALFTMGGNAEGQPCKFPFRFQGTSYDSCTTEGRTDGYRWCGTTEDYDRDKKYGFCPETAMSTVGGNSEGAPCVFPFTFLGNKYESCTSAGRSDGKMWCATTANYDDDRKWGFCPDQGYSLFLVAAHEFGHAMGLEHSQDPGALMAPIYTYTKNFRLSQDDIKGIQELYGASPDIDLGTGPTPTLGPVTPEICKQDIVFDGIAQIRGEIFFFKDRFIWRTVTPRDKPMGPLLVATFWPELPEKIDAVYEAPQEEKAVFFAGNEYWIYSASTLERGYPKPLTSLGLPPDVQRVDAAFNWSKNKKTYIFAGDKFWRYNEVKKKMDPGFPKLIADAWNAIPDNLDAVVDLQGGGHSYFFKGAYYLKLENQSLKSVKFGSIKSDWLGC

MMP9 = MMP9 (human, UniProt P14780 107-707, limits assumed)
MMP9, sequence (P14780 107-707 limits assumed): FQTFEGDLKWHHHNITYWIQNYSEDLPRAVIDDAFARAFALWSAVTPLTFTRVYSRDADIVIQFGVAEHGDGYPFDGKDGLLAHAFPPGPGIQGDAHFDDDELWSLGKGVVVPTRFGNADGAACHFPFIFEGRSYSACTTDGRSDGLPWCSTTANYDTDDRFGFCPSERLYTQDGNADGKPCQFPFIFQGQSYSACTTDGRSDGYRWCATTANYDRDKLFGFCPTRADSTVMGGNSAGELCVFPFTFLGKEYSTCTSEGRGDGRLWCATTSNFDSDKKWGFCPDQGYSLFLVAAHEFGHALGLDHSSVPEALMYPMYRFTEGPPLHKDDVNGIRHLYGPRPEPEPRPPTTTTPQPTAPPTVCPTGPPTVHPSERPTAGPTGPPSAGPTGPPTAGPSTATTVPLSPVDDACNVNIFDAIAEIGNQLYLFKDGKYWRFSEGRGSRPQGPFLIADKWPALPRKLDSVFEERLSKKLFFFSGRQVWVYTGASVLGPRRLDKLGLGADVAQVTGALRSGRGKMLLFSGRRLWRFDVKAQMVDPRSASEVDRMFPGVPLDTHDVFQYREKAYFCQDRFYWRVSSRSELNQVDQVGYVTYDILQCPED

MMP12 = MMP12 (human, UniProt P39900 106-470, limits assumed)
MMP12, sequence (P39900 106-470 limits assumed): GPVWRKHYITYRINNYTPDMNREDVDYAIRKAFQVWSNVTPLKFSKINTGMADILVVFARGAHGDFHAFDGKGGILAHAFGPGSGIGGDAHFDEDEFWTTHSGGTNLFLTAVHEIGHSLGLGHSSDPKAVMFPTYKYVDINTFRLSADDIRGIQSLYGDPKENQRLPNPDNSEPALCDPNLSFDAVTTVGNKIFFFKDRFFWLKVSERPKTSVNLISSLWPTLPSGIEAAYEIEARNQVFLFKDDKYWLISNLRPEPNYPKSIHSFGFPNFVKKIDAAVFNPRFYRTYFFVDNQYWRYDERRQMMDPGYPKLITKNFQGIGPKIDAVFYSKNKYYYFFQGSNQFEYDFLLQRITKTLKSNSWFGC

bovine trypsin = bovine trypsin (bovine, UniProt P00760 24-246)
bovine trypsin, sequence (P00760 24-246): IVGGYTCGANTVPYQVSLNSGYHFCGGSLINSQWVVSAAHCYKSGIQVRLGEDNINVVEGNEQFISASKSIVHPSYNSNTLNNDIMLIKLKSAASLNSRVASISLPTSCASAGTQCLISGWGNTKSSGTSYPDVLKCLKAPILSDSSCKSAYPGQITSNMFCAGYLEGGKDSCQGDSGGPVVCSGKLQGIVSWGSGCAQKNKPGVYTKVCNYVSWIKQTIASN

ADAMTS4 = target: T4, ADAMTS4 (human, UniProt O75173 213-685, limits assumed)
T4 sequence (looked up): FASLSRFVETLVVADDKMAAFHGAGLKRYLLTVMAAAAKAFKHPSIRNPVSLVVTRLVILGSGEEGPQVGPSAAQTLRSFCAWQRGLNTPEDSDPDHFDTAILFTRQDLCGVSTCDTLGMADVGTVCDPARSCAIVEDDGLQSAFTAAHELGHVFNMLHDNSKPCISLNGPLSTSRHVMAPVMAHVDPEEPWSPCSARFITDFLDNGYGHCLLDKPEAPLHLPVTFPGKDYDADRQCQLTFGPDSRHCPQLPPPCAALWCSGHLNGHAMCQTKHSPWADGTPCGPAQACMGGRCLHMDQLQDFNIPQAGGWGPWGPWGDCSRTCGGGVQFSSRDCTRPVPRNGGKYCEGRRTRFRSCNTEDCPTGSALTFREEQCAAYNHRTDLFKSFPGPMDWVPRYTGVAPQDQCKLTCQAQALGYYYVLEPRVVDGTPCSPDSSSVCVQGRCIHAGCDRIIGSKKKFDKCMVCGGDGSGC

ADAMTS5 = target: T5, ADAMTS5 (human, UniProt Q9UNA0 262-622, limits assumed)
T5 sequence (looked up): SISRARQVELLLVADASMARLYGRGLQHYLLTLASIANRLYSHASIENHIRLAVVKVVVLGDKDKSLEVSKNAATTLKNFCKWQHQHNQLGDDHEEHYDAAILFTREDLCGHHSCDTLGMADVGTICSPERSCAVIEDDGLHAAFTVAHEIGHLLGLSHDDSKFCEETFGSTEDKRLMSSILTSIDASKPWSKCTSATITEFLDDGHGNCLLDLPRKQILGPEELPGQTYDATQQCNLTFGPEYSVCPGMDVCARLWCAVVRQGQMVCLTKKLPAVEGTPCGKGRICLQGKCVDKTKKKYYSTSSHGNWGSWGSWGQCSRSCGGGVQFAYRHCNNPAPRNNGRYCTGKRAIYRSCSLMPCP

MMP13 = MMP13 (human, UniProt P45452 104-471, limits assumed)
MMP3 = MMP3 (human, UniProt P08254 100-477, limits assumed)
MMP3, sequence (P08254 100-477 limits assumed): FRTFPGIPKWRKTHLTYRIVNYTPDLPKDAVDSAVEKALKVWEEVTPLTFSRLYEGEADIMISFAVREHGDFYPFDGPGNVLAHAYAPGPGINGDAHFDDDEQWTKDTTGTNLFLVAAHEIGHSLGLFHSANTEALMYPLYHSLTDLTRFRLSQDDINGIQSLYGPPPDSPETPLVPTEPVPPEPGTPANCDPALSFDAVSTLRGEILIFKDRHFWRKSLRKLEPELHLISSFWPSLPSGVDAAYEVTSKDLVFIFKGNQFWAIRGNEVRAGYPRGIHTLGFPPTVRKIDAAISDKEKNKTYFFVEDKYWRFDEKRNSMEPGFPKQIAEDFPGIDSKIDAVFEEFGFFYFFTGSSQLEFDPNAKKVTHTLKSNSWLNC

Protease Inhibition (% of WT) (Elastase): 75 % of WT
Protease Inhibition (% of WT) (Cathepsin G): 250 % of WT
Protease Inhibition (% of WT) (MMP1): 200 % of WT
Protease Inhibition (% of WT) (MMP8): 300 % of WT
Protease Inhibition (% of WT) (MMP2): 20 % of WT
Protease Inhibition (% of WT) (MMP9): 300 % of WT
Protease Inhibition (% of WT) (MMP12): 300 % of WT
B1: Variant A2M, bait region SEQ ID NO 125 (other)
chain: SVSGKPQYMVLVPSLLHTETTEKGCVLLSYLNETVTVSASLESVRGNRSLFTDLEAENDVLHCVAFAVPKSSSNEEVMFLTVQVKGPTQEFKKRTTVMVKNEDSLVFVQTDKSIYKPGQTVKFRVVSMDENFHPLNELIPLVYIQDPKGNRIAQWQSFQLEGGLKQFSFPLSSEPFQGSYKVVVQKKSGGRTEHPFTVEEFVLPKFEVQVTVPKIITILEEEMNVSVCGLYTYGKPVPGHVTVSICRKYSDASDCHGEDSQAFCEKFSGQLNSHGCFYQQVKTKVFQLKRKEYEMKLHTEAQIQEEGTVVELTGRQSSEITRTITKLSFVKVDSHFRQGIPFFGQVRLVDGKGVPIPNKVIFIRGNEANYYSNATTDEHGLVQFSINTTNVMGTSLTVRVNYKDRSPCYGYQWVSEEHEEAHHTAYLVFSPSKSFVHLEPMSHELPCGHTQTVQAHYILNGGTLLGLKKLSFYYLIMAKGGIVRTGTHGLLVKQEDMKGHFSISIPVKSDIAPVARLLIYAVLPTGDVIGDSAKYDVENCLANKVDLSFSPSQSLPASHAHLRVTAAPQSVCALRAVDQSVLLMKPDAELSASSVYNLLPEKDLTGFPGPLNDQDDEDCINRHNVYINGITYTPVSSTNEKDMYSFLEDMGLKAFTNSKIRKPKMCPQLEQYEMHGPSELEGRGSIPENFFGVEAIPMSIPTSEDLVVQIVEEPHTKLRKYFPETWIWDLVVVNSAGVAEVGVTVPDTITEWKAGAFCLSEDAGLGISSTASLRAFQPFFVELTMPYSVIRGEAFTLKATVLNYLPKCIRVSVQLEASPAFLAVPVEKEQAPHCICANGRQTVSWAVTPKSLGNVNFTVSAEALESQELCGTEVPSVPEHGRKDTVIKPLLVEPEGLEKETTFNSLLCPSGGEVSEELSLKLPPNVVEESARASVSVLGDILGSAMQNTQNLLQMPYGCGEQNMVLFAPNIYVLDYLNETQQLTPEIKSKAIGYLNTGYQRQLNYKHYDGSYSTFGERYGRNQGNTWLTAFVLKTFAQARAYIFIDEAHITQALIWLSQRQKDNGCFRSSGSLLNNAIKGGVEDEVTLSAYITIALLEIPLTVTHPVVRNALFCLESAWKTAQEGDHGSHVYTKALLAYAFALAGNQDKRKEVLKSLNEEAVKKDNSVHWERPQKPKAPVGHFYEPQAPSAEVEMTSYVLLAYLTAQPAPTSEDLTSATNIVKWITKQQNAQGGFSSTQDTVVALHALSKYGAATFTRTGKAAQVTIQSSGTFSSKFQVDNNNRLLLQQVSLPELPGEYSMKVTGEGCVYLQTSLKYNILPEKEEFPFALGVQTLPQTCDEPKAHTSFQISLSVSYTGSRSASNMAIVDVKMVSGFIPLKPTVKMLERSNHVSRTEVSSNHVLIYLDKVSNQTLSLFFTVLQDVPVRDLKPAIVKVYDYYETDEFAIAEYNAPCSKDLGNADYKDDDDKGASHHHHHH

Protease Inhibition (% of WT) (Elastase): 50 % of WT
Protease Inhibition (% of WT) (bovine trypsin): 100 % of WT
Protease Inhibition (% of WT) (ADAMTS4): 250 % of WT
Protease Inhibition (% of WT) (ADAMTS5): 350 % of WT
Protease Inhibition (% of WT) (MMP1): 100 % of WT
Protease Inhibition (% of WT) (MMP8): 50 % of WT
Protease Inhibition (% of WT) (MMP13): 200 % of WT
Protease Inhibition (% of WT) (MMP2): 100 % of WT
Protease Inhibition (% of WT) (MMP9): 70 % of WT
Protease Inhibition (% of WT) (MMP3): 80 % of WT
Protease Inhibition (% of WT) (MMP12): 100 % of WT
B2: Variant A2M, bait region SEQ ID NO 96 (other)
chain: SVSGKPQYMVLVPSLLHTETTEKGCVLLSYLNETVTVSASLESVRGNRSLFTDLEAENDVLHCVAFAVPKSSSNEEVMFLTVQVKGPTQEFKKRTTVMVKNEDSLVFVQTDKSIYKPGQTVKFRVVSMDENFHPLNELIPLVYIQDPKGNRIAQWQSFQLEGGLKQFSFPLSSEPFQGSYKVVVQKKSGGRTEHPFTVEEFVLPKFEVQVTVPKIITILEEEMNVSVCGLYTYGKPVPGHVTVSICRKYSDASDCHGEDSQAFCEKFSGQLNSHGCFYQQVKTKVFQLKRKEYEMKLHTEAQIQEEGTVVELTGRQSSEITRTITKLSFVKVDSHFRQGIPFFGQVRLVDGKGVPIPNKVIFIRGNEANYYSNATTDEHGLVQFSINTTNVMGTSLTVRVNYKDRSPCYGYQWVSEEHEEAHHTAYLVFSPSKSFVHLEPMSHELPCGHTQTVQAHYILNGGTLLGLKKLSFYYLIMAKGGIVRTGTHGLLVKQEDMKGHFSISIPVKSDIAPVARLLIYAVLPTGDVIGDSAKYDVENCLANKVDLSFSPSQSLPASHAHLRVTAAPQSVCALRAVDQSVLLMKPDAELSASSVYNLLPEKDLTGFPGPLNDQDDEDCINRHNVYINGITYTPVSSTNEKDMYSFLEDMGLKAFTNSKIRKPKMCPQLEQYEMHGPEGLRVGEGEGEGEGFYESDVMGRGHARLVHVEEPHTKLLRKYFPETWIWDLVVVNSAGVAEVGVTVPDTITEWKAGAFCLSEDAGLGISSTASLRAFQPFFVELTMPYSVIRGEAFTLKATVLNYLPKCIRVSVQLEASPAFLAVPVEKEQAPHCICANGRQTVSWAVTPKSLGNVNFTVSAEALESQELCGTEVPSVPEHGRKDTVIKPLLVEPEGLEKETTFNSLLCPSGGEVSEELSLKLPPNVVEESARASVSVLGDILGSAMQNTQNLLQMPYGCGEQNMVLFAPNIYVLDYLNETQQLTPEIKSKAIGYLNTGYQRQLNYKHYDGSYSTFGERYGRNQGNTWLTAFVLKTFAQARAYIFIDEAHITQALIWLSQRQKDNGCFRSSGSLLNNAIKGGVEDEVTLSAYITIALLEIPLTVTHPVVRNALFCLESAWKTAQEGDHGSHVYTKALLAYAFALAGNQDKRKEVLKSLNEEAVKKDNSVHWERPQKPKAPVGHFYEPQAPSAEVEMTSYVLLAYLTAQPAPTSEDLTSATNIVKWITKQQNAQGGFSSTQDTVVALHALSKYGAATFTRTGKAAQVTIQSSGTFSSKFQVDNNNRLLLQQVSLPELPGEYSMKVTGEGCVYLQTSLKYNILPEKEEFPFALGVQTLPQTCDEPKAHTSFQISLSVSYTGSRSASNMAIVDVKMVSGFIPLKPTVKMLERSNHVSRTEVSSNHVLIYLDKVSNQTLSLFFTVLQDVPVRDLKPAIVKVYDYYETDEFAIAEYNAPCSKDLGNADYKDDDDKGASHHHHHH
